Patent US20230174642A1, “AFFINITY-MATURATED ANTI-ASIC1a ANTIBODIES” (SHANGHAITECH UNIVERSITY, priority 2019, published 2023)

Molecular target: T1, mouse ASIC1a (mASIC1a-eYFP) (Mus musculus, UniProt Q6NXK8)
T1 construct: expressed in transfected cells; host or cells: CHO-K1 (transient)
T1 sequence (Q6NXK8 1-526): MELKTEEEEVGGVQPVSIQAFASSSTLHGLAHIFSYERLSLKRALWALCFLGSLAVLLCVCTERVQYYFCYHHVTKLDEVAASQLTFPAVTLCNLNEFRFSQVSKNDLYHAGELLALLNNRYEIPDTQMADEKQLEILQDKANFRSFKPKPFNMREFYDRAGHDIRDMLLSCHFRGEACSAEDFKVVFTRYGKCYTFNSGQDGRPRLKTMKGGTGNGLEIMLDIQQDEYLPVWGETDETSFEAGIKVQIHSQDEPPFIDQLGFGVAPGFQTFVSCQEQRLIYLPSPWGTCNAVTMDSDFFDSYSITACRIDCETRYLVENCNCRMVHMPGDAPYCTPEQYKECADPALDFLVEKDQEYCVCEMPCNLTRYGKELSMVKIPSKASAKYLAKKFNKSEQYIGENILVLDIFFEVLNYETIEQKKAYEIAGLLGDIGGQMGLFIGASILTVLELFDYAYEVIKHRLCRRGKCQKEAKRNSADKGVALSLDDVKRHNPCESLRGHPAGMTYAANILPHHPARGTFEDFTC
Experiment: FACS-based binding assay, transiently transfected CHO-K1 cells (species selectivity)
Conditions: double positive population
Description: To investigate the species selectivity of ASC06-IgG1 affinity-matured antibodies, plasmids encoding fusion proteins of eYFP with […] homologs of ASIC1a were constructed. These plasmids included those encoding human ASIC1a (hASIC1a-eYFP), mouse ASIC1a (mASIC1a-eYFP), and rat ASIC1a (rASIC1a-eYFP). CHO-K1 cells were transiently transfected with the ASIC1a-eYFP plasmids, and a fluorescence activated cell sorting (FACS)-based binding assay was carried out to determine binding to the homologs or isoforms of ASIC1a expressed on the cell surface. An isotype control was used as a negative control for binding (NC). ASC06-IgG1 was used as a positive control. Summarily, the CHO-K1 cells expressing the ASIC1a-eYFP (green) homologs were stained with the indicated antibody (red) and subjected to FACS.

B1: ASC06-IgG1: parental (WT) ASIC1a-specific antagonist antibody; VL SEQ ID NO: 2, VH SEQ ID NO: 7, VH-CDR3 DSFYGYSKGD (antibody, V domains shown)
VH: QVQLQQSGGGLVQPGGSLRLSCAASGFTFSSYAMSWVRQAPGKGLEWVSAISGSGGSTYYADSVKGRFTISRDNSKNTLYLQMNSLRAEDTAVYYCAKDSFYGYSKGDWGQGTLVTVSS
VL: QSALTQPASVSGSPGQSITISCTGTSSDVGAYNYVSWYQQQPGKAPKLMIYGVSNRPSGVSNRFSGSKSGNAASLTISGLQAEDEADYYCSSYTSSSTYVFGTGTKLTVLG
modifications: IgG1 constant regions; Amino acid sequence VH of ASC06; Amino acid sequence VL of ASC06
  binding to cells expressing mASIC1a-eYFP: bound
